{"source": "patent US20230192818A1", "key": {"[1]": {"molecular_target": "Delta spike trimer (SARS-CoV-2), P0DTC2", "conditions": "remark: other sources report otherwise"}, "[2]": {"molecular_target": "Antibody 178-09_His B.1.1.7 (27080) (SARS-CoV-2), P0DTC2", "test": "SPR (Carterra)", "conditions": "remark: other sources report otherwise"}}, "data": [{"binder": "3-31 (Fc fusion) EVQLVESGGGLVQPGGSLRLSCAASGSTFSINAMGWFRQAPGKEREFVAGITSSGGYTNYADSVKGRFTISADNSKNTAYLQMNSLKPEDTAVYYCAADGVPEYSDYASGPVWGQGTLVTVSS", "values": [{"measurement": "IC50", "setting": "[1]", "value": 3, "unit": "nM"}, {"measurement": "Kd", "setting": "[2]", "value": 16.1, "unit": "nM"}]}]}
